Measured values published in US20200010567A1 (NEURIMMUNE, published 2020).

Columns and labels:
[1] = molecular target: T1, BSA-coupled (GP)15 DPR protein peptide (bovine, conjugated via a bifunctional linker (SMCC) to bovine serum albumin); test: indirect ELISA, BSA-coupled peptide coated, antibody titrated [also D00014 FIG. 3H]
T1 construct: also called BSA-(GP)15
Protocol: In brief, dipeptide repeat proteins were synthesized and purified by Schafer-N(Copenhagen, Denmark): (GA)₁₅: H-CHHHHHH(GA)₁₅-OH; (GP)₁₅: H-C(GP)₁₅-OH; (GR)₁₅: H-C(GR)₁₅-OH; (PA)₁₅: H-C(PA)₁₅-OH; (PR)₁₅: H—C(PR)₁₅-OH. DPR protein peptides were then conjugated via a bifunctional linker (SMCC) to bovine serum albumin (BSA). 96-well microplates (Corning Incorporated, Corning, USA) were coated with BSA-coupled or -uncoupled dipeptide repeat protein peptides at a concentration of either 5 μg/ml or 20 μg/ml in coating buffer (15 mM Na₂CO₃, 35 mM NaHCO₃, pH 9.42). Non-specific binding sites were blocked for 1 h at room temperature with PBS/0.1% Tween®-20 containing 2% BSA (Sigma-Aldrich, Buchs, Switzerland). Primary antibodies were diluted to the indicated concentrations and incubated 1 h at room temperature, followed by incubation with a donkey anti-human IgG Fcγ-specific antibody conjugated with HRP (Jackson ImmunoResearch Laboratories, Inc., West Grove, USA). Binding was determined by measurement of HRP activity in a standard colorimetric assay. EC₅₀ values were estimated by non-linear regression using GraphPad Prism software (San Diego, USA).

PR6: H-(PR)6HHHHHH-NH2 = molecular target: T2, PR6: H-(PR)6HHHHHH-NH2; test: indirect ELISA, coated His-tagged peptide
T2 peptide: H-PRPRPRPRPRPRHHHHHH-NH2
Procedure, shortened: (§1)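 Antibodies at graded concentrations bound for 1 h at room temperature to wells carrying 50 μg/ml His-tagged repeat peptide (pH 9.42 carbonate coating, 2% BSA block). Bound IgG read colorimetrically via HRP anti-human Fcγ; EC₅₀ estimated by non-linear regression.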

PR10: H-(PR)10HHHHHH-NH2 = molecular target: T3, PR10: H-(PR)10HHHHHH-NH2 (C-terminal amide); test: indirect ELISA, coated His-tagged peptide
T3 peptide: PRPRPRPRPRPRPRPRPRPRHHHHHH
Procedure, shortened: as §1

GR10: H-(GR)10HHHHHH-NH2 = molecular target: T4, GR10: H-(GR)10HHHHHH-NH2 (C-terminal amide); test: indirect ELISA, coated His-tagged peptide
T4 peptide: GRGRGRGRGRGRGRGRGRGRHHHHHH
Procedure, shortened: as §1

GP20: H-(GP)20HHHHHH-NH2 = molecular target: T5, GP20: H-(GP)20HHHHHH-NH2 (C-terminal amide); test: sandwich ELISA, peptide captured by anti-His antibody
T5 peptide: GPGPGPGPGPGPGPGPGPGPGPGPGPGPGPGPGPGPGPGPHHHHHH
Text: In brief, His-tagged dipeptide repeat protein peptides were synthesized and purified by Schafer-N(Copenhagen, Denmark): GA₂₀: H-(GA)₂₀HHHHHH-NH₂; GA₁₀: H-(GA)₁₀HHHHHH-NH₂; GA₆: H-(GA)₆HHHHHH-NH₂; GA₅: H-(GA)₅HHHHHH-NH₂; GA₄: H-(GA)₄HHHHHH-NH₂; GA₃: H-(GA)₃HHHHHH-NH₂; GA₂: H-(GA)₂HHHHHH-NH₂; GP₂₀: H-(GP)₂₀HHHHHH-NH₂; GP₁₀: H-(GP)₁₀HHHHHH-NH₂; GP₆: H-(GP)₆HHHHHH-NH₂; GP₅: H-(GP)₅HHHHHH-NH₂; GP₄: H-(GP)₄HHHHHH-NH₂; GP₃: H-(GP)₃HHHHHH-NH₂; GP₂: H-(GP)₂HHHHHH-NH₂. 96-well microplates (Corning Incorporated, Corning, USA) were coated with monoclonal mouse anti-His tag antibody (Takara Bio Europe/Clontech, Saint-Germain-en-Laye, France) at a concentration of 10 μg/ml in coating buffer (15 mM Na₂CO₃, 35 mM NaHCO₃, pH 9.42) overnight at 4° C. Non-specific binding sites were blocked for 1 h at room temperature with PBS/0.1% Tween®-20 containing 2% BSA (Sigma-Aldrich, Buchs, Switzerland). After a washing step, His-tagged C9orf72 DPR protein peptides at equal concentration of either 1 μM or 5 μM in PBS (pH 7.4) were added for target-trapping by the anti-His tag antibody for 1 h at room temperature. […] Antibody binding to DPR protein peptides was detected by a donkey anti-human IgG Fcγ-specific antibody conjugated with HRP at 1:5000 dilution (Jackson ImmunoResearch Laboratories, Inc., West Grove, USA) for 1 h at RT. Binding was determined by measurement of HRP activity in a standard colorimetric assay. EC₅₀ values were estimated by non-linear regression using GraphPad Prism software (San Diego, USA).

T1 sequence (peptide, as listed by the source limits assumed, chain 1 of 2): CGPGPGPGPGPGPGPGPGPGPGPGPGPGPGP
T1 sequence (P02769 25-607 limits assumed, chain 2 of 2): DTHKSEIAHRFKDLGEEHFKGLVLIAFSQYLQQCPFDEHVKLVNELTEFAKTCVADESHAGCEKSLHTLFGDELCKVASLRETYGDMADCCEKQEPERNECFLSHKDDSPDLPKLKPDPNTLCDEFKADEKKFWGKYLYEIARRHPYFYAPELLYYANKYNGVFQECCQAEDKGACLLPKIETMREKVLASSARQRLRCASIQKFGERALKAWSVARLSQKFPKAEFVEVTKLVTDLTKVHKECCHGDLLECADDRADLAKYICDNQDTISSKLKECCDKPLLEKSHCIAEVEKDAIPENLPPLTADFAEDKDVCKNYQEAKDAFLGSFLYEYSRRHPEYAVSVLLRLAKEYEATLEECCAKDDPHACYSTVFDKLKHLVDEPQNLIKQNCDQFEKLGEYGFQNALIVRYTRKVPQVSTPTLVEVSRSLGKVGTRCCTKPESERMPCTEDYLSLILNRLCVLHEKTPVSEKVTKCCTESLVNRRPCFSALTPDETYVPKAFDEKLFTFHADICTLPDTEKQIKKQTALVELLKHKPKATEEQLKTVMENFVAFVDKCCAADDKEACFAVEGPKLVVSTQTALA

B1: NI-308.46E9 (antibody, V domains shown)
VH: QVQLQESGPGLVKPSETLSLTCTVSGASISGSTYYWGWIRQPPGKGLEYIGRIYYSGSTYYNPSLKSRATISVDTSKNQLSLTLSSVTAADTAVYYCVRPFYAGSGNSPFDYWGQGTLVTVSS
VL: CEIVLTQSPATVSVSPGERATLSCRASQSVSTNLAWYQQKPGQPPRLLIYGASTRATGIPARFSGSGSGAEFTLTISSLQSEDFVVYYCQQYNNWPPAFGGGTKVEIK
notes: Recombinant complete human IgG1, kappa
EC50 [1]: 12.1 nM

B2: NI-308.24E11 (antibody, V domains shown)
VH: QVQLQESGPGLVKPSETLSLTCTVSTTSLRSYFWSWIRQPPGKGLEWIGYVYYSGSTIYNPSLKNRVTISIDTSKNQFSLNLRSVTAADTAMYFCARGVPAETDARDFPPYYFDHWGQGTLVTVSS
VL: CDIQLTQSPSSLSASVGNRITFTCQASQDIRYYLNWYQQKPGKAPKLLIYDVSNLDTGVPPRFSGSGSGTNFTFTISSLQPEDIAVYYCQQYEGLPVTFGGGTKVEIK
notes: as for B1
EC50 (PR6: H-(PR)6HHHHHH-NH2): > 200 nM | EC50 (PR10: H-(PR)10HHHHHH-NH2): 31.7 nM

B3: NI-308.6B11 (antibody, V domains shown)
VH: EVQLVQSGAEVKRPGASVKVSCKVSGYTLTELSMHWVRQAPGKGLEWMGGFDPEDGETVYAQKFQGRVTMTEDTSTDTAYMELSSLRSEDTALYHCATYGSSWHWNEGNEGSYYFDYWGQGTLVTVSS
VL: CDIQMTQSPSSLSASVGDRVTITCQASQDISIYLNWYQQKPGKAPKLLIYDASNLETGVPSRFSGSGSGTDFTFTISGLQPEDVARYYCQQYDDLPITFGQGTRLEIK
notes: as for B1
EC50 (GR10: H-(GR)10HHHHHH-NH2): 1.3 nM

B4: NI-308.5G2 (antibody, V domains shown)
VH: EVQLVQSGADLRNPGASVTVSCTASGYHFADNAINWLRQAPGQRLEWMGWINIYSGNTKYSQNFQGRVTFTRNTSASTAFMHLRSLRSEDTAVYFCARDPDSSGYYLPYFDYWGQGTLVTVSS
VL: DIQLTQSPDSLTLSLGERATINCKSSQSVFYNSNNKNYLAWYQQKPGQPPKLLMYWASTRESGVTDRFSGSGSGTDFTLTITNLQAEDVAVYYCQQFYSSPLTFGGGTKVEIK
notes: as for B1
EC50 (GP20: H-(GP)20HHHHHH-NH2): 38.2 nM
